Substitutions are numbered along the chain they refer to. In names and notes the source's numbering stands.
What was measured:
[1] = biological target: T1, yeast carboxypeptidase Y (CPD-Y), wild type (SEQ ID NO:32) (Saccharomyces cerevisiae, UniProt P00729); assay: Hydrolysis of FA-Phe-Val-OH; type: biochemical
T1 construct: purchased Carlbiotech, Copenhagen, Denmark
T1 sequence (P00729 112-532): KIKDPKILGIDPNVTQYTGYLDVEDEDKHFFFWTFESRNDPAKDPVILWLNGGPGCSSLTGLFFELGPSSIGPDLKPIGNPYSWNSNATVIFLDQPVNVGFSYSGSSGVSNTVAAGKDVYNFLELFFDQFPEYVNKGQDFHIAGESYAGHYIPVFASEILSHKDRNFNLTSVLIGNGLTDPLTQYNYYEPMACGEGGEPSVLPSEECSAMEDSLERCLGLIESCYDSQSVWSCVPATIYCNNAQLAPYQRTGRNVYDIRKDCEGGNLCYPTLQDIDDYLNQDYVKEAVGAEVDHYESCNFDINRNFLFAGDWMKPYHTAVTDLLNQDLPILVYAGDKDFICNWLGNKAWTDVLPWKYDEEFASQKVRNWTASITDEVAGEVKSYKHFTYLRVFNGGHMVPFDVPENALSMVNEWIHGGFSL

[2] = biological target: T2, carboxypeptidase Y (CPD-Y) variant E65A (Glu65 replaced by alanine) (Saccharomyces cerevisiae, UniProt P00729, E176A); assay: Aminolysis; KN(app) of nucleophile; type: biochemical, yeast; conditions: Table VI; substance of the line is the substrate (leaving group varied), pH 7.5
T2 construct: made in house; host or cells: S. cerevisiae W2579 (secreted)
T2 sequence (P00729 112-532 E176A): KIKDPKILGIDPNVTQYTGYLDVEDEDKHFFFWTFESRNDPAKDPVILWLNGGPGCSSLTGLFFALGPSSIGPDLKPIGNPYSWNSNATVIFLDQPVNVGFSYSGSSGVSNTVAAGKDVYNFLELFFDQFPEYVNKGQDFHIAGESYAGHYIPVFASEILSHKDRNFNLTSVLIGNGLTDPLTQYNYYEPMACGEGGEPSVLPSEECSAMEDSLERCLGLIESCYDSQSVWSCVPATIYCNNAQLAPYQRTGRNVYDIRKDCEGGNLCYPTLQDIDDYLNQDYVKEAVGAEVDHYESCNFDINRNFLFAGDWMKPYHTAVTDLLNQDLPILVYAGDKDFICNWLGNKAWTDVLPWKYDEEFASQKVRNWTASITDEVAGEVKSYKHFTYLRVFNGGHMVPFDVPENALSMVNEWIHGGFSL
Method: (§1) Aminolysis reactions were carried out in the following way. The nucleophile was dissolved in 50 mM Hepes, 5 mM EDTA and pH was adjusted to 7.5. Five (5) μl of substrate (8 mM FA-Ala-OBzl in methanol) was added to 190 μl nucleophile solution followed by 5 μl enzyme, resulting in a substrate concentration of 0.2 mM. For reactions carried out at pH 9.5, Hepes was replaced with Ches. During the reaction, 20 μl aliquots were removed from the reaction mixture and added to 50 μl 1% trifluoroacetic acid to quench the reaction. The reactant composition was determined by HPLC using a Waters HPLC equipped with a C-18 Waters Novapac 4μ reverse phase column and various gradients of acetonitrile in 0.1% trifluoroacetic acid. The separation was monitored at 302 nm allowing the direct quantification of the products from the integrated peak areas. The composition of the reaction mixture was determined at least twice during the reaction, the first time when 20-50% (preferably 35%) of the ester substrate had been consumed in the reaction and the second time when 50-90% (preferably 80%) of the substrate had been consumed. The products were collected and identified by amino acid analysis after acid hydrolysis using a Pharmacia Alpha Plus analyzer.
(§2) Further identification was obtained by co-chromatography of authentic standard compounds. The fraction of aminolysis (fa) was expressed as the ratio between the formed aminolysis product and the sum of all products being formed, i.e., unconsumed substrate was disregarded in the calculations. The KN(app), representing the nucleophile concentration at which fa is half the maximum value (a measure for the dissociation constant of the nucleophile), and famax (the highest possible fa obtained at saturation of the enzyme with nucleophile) were determined by fitting the values of fa obtained at a minimum of seven concentrations of nucleophile to a saturation. The value of fa obtained at the highest possible nucleophile concentration is designated fasat.
(§3) Aminolysis reactions were carried out in the following way. The nucleophile was dissolved in 50 mM HEPES, 5 mM EDTA and pH was adjusted to 7.5, 5 μl substrate (8 mM FA-Ala-OBzl or FA-Ala-Xaa-OH in methanol) was added to 190 μl nucleophile solution followed by 5 μl enzyme diluted in buffer to the appropriate concentration, resulting in a substrate concentration of 0.2 mM. During the reaction, 20 μl aliquots were removed from the reaction mixture and added to 50 μl 1% trifluoroacetic acid to quench the reaction. The reactant composition was determined by HPLC using a Waters HPLC equipped with a C-18 Waters Novapac 4μ reverse phase column and various gradients of acetonitrile in 0.1% trifluoroacetic acid. The separation was monitored at 302 nm allowing the direct quantification of the products from the integrated peak areas. The products were collected and identified by amino acid analysis after acid hydrolysis (Pharmacia Alpha Plus analyzer) and by co-chromatography of authentic standards. The fraction of aminolysis (fa) was expressed as the ratio between the formed aminolysis product and the sum of all products being formed, i.e. unconsumed substrate was disregarded in the calculations. The KN,app (a measure for the dissociation constant of the nucleophile) and famax (the highest possible fa obtained at saturation with nucleophile were determined by fitting the obtained fa values to the equation fa=famax /(1+KN,app /N).

[3] = biological target: T3, carboxypeptidase Y (CPD-Y) variant N51S (Asn51 replaced with serine) (Saccharomyces cerevisiae, UniProt P00729, N162S); assay: Aminolysis; KN(app) of nucleophile; type: biochemical, yeast; conditions: Table VI; substance of the line is the substrate (leaving group varied), pH 7.5
T3 construct: made in house; host or cells: S. cerevisiae W2579 (secreted)
T3 sequence (P00729 112-532 N162S): T1 sequence (P00729 112-532) with N51S
Method: as §1, §2, §3

[4] = biological target: T4, carboxypeptidase Y (CPD-Y) variant N51Q (Asn51 replaced with glutamine) (Saccharomyces cerevisiae, UniProt P00729, N162Q); assay: Aminolysis; KN(app) of nucleophile; type: biochemical, yeast; conditions: Table VI; substance of the line is the substrate (leaving group varied), pH 7.5
T4 construct: made in house; host or cells: S. cerevisiae W2579 (secreted)
T4 sequence (P00729 112-532 N162Q): T1 sequence (P00729 112-532) with N51Q
Method: as §1, §2, §3

[5] = biological target: T5, carboxypeptidase Y (CPD-Y) variant E145A (Glu145 replaced by alanine) (Saccharomyces cerevisiae, UniProt P00729, E256A); assay: Aminolysis; KN(app) of nucleophile; type: biochemical, yeast; conditions: Table VI; substance of the line is the substrate (leaving group varied), pH 7.5
T5 construct: made in house; host or cells: S. cerevisiae W2579 (secreted)
T5 sequence (P00729 112-532 E256A): as the sequence (P00729 112-532 E176A) above, with A65E, E145A counted along it
Method: as §1, §2, §3

[6] = biological target: T1, yeast carboxypeptidase Y (CPD-Y), wild type (SEQ ID NO:32); assay: Aminolysis of ester/peptide substrates; KN(app) of nucleophile; type: biochemical; conditions: Table VI; substance of the line is the substrate (leaving group varied), pH 7.5
Method: as §1, §2, §3

[7] = substrate: CC(C)[C@H](NC(=O)[C@H](Cc1ccccc1)NC(=O)C=Cc1ccco1)C(=O)O; assay: purified protein, by the assay type; conditions: other: hydrolysis of FA-Phe-Val-OH
[8] = substrate: CC(C)C[C@H](NC(=O)[C@H](CO)NC(=O)OCc1ccccc1)C(=O)O; assay: Hydrolysis of CBZ-X-Leu-OH substrates; type: biochemical, yeast; conditions: other: Table X, hydrolysis at 25° C., 10 mM sodium phosphate pH 6.5
Method: (§4) Over-expression of selected mutant enzymes was performed according to Nielsen et al. (1990) cited supra. The mutant BamHI-BamHI PRC1 fragments of pYSP32 were inserted into the GAL expression vector pRA21 and introduced into yeast strain K2579LLR. The plasmid pRA21 is derived from p72UG (Nielsen et al. (1990) cited supra) by replacing the 918 bp BglII-SalI fragment with the 638 bp BglII-PvuII fragment of pWI3, thereby deleting the BamHI site downstream of the PRC1 gene. Mutant forms of CPD-Y were purified from culture supernatants by affinity chromatography as described in Example 1. Kinetic parameters were determined by measuring rates of hydrolysis at 25° C. of CBZ-X-Leu-OH substrates spectrophotometrically at 224 nm in 10 mM sodium phosphate buffer pH 6.5. The concentrations of substrates ranged from 0.01 to 0.5 mM. Accurate measurements were not possible with substrate concentrations exceeding 0.5 mM due to the high absorption of the substrate.

[9] = substrate: CC(C)C[C@H](NC(=O)[C@H](CCC(=O)O)NC(=O)OCc1ccccc1)C(=O)O; assay: Hydrolysis of CBZ-X-Leu-OH substrates; type: biochemical, yeast; conditions: other: Table X and text, hydrolysis at 25° C., 10 mM sodium phosphate pH 6.5
Method: as §4

[10] = substrate: CC(C)C[C@H](NC(=O)[C@H](Cc1ccccc1)NC(=O)OCc1ccccc1)C(=O)O; assay: Hydrolysis of CBZ-X-Leu-OH substrates; type: biochemical, yeast; conditions: other: Table X, hydrolysis at 25° C., 10 mM sodium phosphate pH 6.5
Method: as §4

[11] = substrate: CC(C)C[C@H](NC(=O)[C@H](CCCCN)NC(=O)OCc1ccccc1)C(=O)O; assay: Hydrolysis of CBZ-X-Leu-OH substrates; type: biochemical, yeast; conditions: other: Table X and text, hydrolysis at 25° C., 10 mM sodium phosphate pH 6.5
Method: as §4

[12] = substrate: CC(C)C[C@H](NC(=O)[C@H](C)NC(=O)OCc1ccccc1)C(=O)O; assay: Hydrolysis of CBZ-X-Leu-OH substrates; type: biochemical, yeast; conditions: other: Table X, hydrolysis at 25° C., 10 mM sodium phosphate pH 6.5
Method: as §4

## CC(C)[C@H](NC(=O)[C@H](Cc1ccccc1)NC(=O)C=Cc1ccco1)C(=O)O [FA-Phe-Val-OH]
[1]
  kcat: 108.3 s⁻¹
  kcat /KM: 2.33333e+06 M⁻¹ s⁻¹

## C[C@H](NC(=O)C=Cc1ccco1)C(=O)OCc1ccccc1 [FA--Ala--OBzl, FA-Ala-OBzl]
[2]
  Kn,app (H-Val-NH2 as nucleophile): 4.2 ± 0.01 mM
[3]
  Kn,app (H-Val-NH2 as nucleophile): 1.6 ± 0.1 mM
[4]
  Kn,app (H-Val-NH2 as nucleophile): 3.1 ± 0.4 mM
[5]
  Kn,app (H-Val-NH2 as nucleophile): 3.4 ± 0.4 mM
[6]
  Kn,app (H-Val-NH2 as nucleophile): 1.7 ± 0.1 mM

## carboxypeptidase Y (enzyme)
FA-Ala-Gln-OH
  famax of transpeptidation (nucleophile H-Gly-NH2): 0.93
FA-Ala-Lys-OH
  famax of transpeptidation (nucleophile H-Gly-NH2): 0.99
FA-Ala-Arg-OH
  famax of transpeptidation (nucleophile H-Val-NH2): 1
FA-Phe-Val-OH
  kcat/KM of hydrolysis: 2.33e+06 M⁻¹ s⁻¹
CBZ-Trp-Leu-OH
  estimated CPD-Y activity relative to wild type transformants (fold of wild type): 1
CBZ-His-Leu-OH
  estimated CPD-Y activity relative to wild type transformants (fold of wild type): 1
CBZ-Gly-Leu-OH
  estimated CPD-Y activity relative to wild type transformants (fold of wild type): 1
CBZ-Pro-Leu-OH
  estimated CPD-Y activity relative to wild type transformants (fold of wild type): 1
FA-Ala-Phe-OH
  famax of transpeptidation (nucleophile H-Val-NH2): 0.06
FA-Ala-Val-OH
  famax of transpeptidation (nucleophile H-Val-NH2): 0.22
FA-Ala-Ala-OH
  famax of transpeptidation (nucleophile H-Val-NH2): 0.94
FA-Ala-Leu-OH
  famax of transpeptidation (nucleophile H-Val-NH2): 0.16
CBZ-Ser-Leu-OH
  kcat/Km of hydrolysis: 200000 M⁻¹ s⁻¹
CBZ-Ala-Leu-OH
  kcat/Km of hydrolysis: 600000 M⁻¹ s⁻¹
CBZ-Lys-Leu-OH
  kcat/Km of hydrolysis: 400 M⁻¹ s⁻¹
CBZ-Phe-Leu-OH
  kcat/Km of hydrolysis: 6.33e+06 M⁻¹ s⁻¹
CBZ-Glu-Leu-OH
  kcat/Km of hydrolysis: 7330 M⁻¹ s⁻¹

B1: yeast carboxypeptidase Y (CPD-Y), wild type (SEQ ID NO:32) (Saccharomyces cerevisiae S288C) (protein)
chain: T1 sequence (P00729 112-532)
notes: purchased Carlbiotech, Copenhagen, Denmark
[7]
  Km: 47 µM
[8]
  Km: 70 µM
  kcat: 800 mM/min/mM
  kcat/Km: 12,000 min^-1 mM^-1
[9]
  kcat/Km: 7330 M⁻¹ s⁻¹
[10]
  Km: 36 µM
  kcat: 13600 mM/min/mM
  kcat/Km: 380,000 min^-1 mM^-1
[11]
  kcat/Km: 400 M⁻¹ s⁻¹
[12]
  Km: 700 µM
  kcat: 25000 mM/min/mM
  kcat/Km: 36,000 min^-1 mM^-1

— patent US5945329A, “Customized proteases” (Carlsberg A/S, priority 1997, dated 1999)
